Assays:
hASCT1 receptor = biological target: T1, hASCT1 receptor (human, UniProt P43007 1-532); assay: flow cytometry on XChASCT1 cells, anti-RGS-His detection
T1 construct: whole, on cells
T1 sequence: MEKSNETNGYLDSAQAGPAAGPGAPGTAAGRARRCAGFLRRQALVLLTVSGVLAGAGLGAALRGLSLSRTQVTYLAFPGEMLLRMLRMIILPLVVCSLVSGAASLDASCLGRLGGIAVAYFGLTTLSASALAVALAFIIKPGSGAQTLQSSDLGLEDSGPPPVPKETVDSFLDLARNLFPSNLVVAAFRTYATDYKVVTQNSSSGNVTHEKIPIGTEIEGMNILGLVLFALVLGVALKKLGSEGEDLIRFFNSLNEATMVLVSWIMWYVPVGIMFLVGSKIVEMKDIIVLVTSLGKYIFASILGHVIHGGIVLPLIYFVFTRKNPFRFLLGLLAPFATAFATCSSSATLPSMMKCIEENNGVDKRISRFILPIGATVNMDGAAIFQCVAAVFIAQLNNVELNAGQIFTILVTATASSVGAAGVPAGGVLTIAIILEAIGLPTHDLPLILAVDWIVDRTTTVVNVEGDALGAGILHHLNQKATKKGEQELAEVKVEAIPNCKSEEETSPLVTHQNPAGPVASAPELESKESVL

[1] = biological target: T2, hASCT2 receptor (human type 2 sodium-dependent neutral amino acid transporter) (human, UniProt Q15758 1-541); assay: flow cytometry on XChASCT2 cells and on TE671 and TE671galv cells, anti-RGS-His detection
T2 construct: whole, on cells
T2 sequence: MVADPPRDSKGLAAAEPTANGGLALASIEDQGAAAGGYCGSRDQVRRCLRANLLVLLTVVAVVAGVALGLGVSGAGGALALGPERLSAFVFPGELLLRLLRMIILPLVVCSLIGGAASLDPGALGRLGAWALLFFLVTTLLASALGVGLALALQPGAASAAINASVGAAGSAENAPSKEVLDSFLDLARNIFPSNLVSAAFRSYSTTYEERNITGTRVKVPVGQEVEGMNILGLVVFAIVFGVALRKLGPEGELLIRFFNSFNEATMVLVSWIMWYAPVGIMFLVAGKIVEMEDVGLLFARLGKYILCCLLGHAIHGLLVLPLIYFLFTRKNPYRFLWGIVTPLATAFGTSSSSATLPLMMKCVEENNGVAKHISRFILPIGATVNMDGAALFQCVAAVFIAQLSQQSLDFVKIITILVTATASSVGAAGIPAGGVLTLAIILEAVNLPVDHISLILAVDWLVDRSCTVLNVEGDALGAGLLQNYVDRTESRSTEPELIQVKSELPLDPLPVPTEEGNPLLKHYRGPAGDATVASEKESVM

[2] = biological target: T2, hASCT2 receptor (human type 2 …); assay: flow cytometry on XChASCT2 cells, anti-RGS-His detection

B1: soluble recombinant SU subunit of the HERV-W envelope (EnvSU, 1-317) (ligand)
chain: APPPCRCMTSSSPYQEFLWRMQRPGNIDAPSYRSLSKGTPTFTAHTHMPRNCYHSATLCMHANTHYWTGKMINPSCPGGLGVTVCWTYFTQTGMSDGGGVQDQAREKHVKEVISQLTRVHGTSSPYKGLDLSKLHETLRTHTRLVSLFNTTLTGLHEVSAQNPTNCWICLPLNFRPYVSIPVPEQWNNFSTEINTTSVLVGPLVSNLEITHTSNLTCVKFSNTTYTTNSQCIRWVTPPTQIVCLPSGIFFVCGTSAYRCLNGSSESMCFLSFLVPPMTIYTEQDLYSYVISKPAAARRGSHHHHHH
notes: range 21-317; Used as filtered HEK293T supernatant; also called soluble SU; SU subunit (1-317)
binding result (hASCT1 receptor): binds | binding result [1]: binds

B2: soluble recombinant envelope protein Env-Gp60 (Gp60, 1-435) (ligand)
chain: not shown
notes: range 21-435; Used as filtered HEK293T supernatant; the construct is printed as 1-435; also called soluble envelope
binding result [2]: binds

Source: patent US20160090402A1 (BIOMERIEUX, published 2016)
